This is an account of results in paper PMC10256718.

This assay deals with Quinol-dependent nitric oxide reductase from Alcaligenes xylosoxidans (His-tagged AxqNOR-BRIL) (Alcaligenes xylosoxidans). Nature of the assay: cryo-EM structure; single-particle cryoEM, 2.2 Å, refined in C2 symmetry; sample at 3 mg/mL in Tris-HCl buffer pH 7.0, 150 mM NaCl, 0.05% DTM; dimer.

A word on the stoichiometry N: it is the number of molecules, sites or subunits per partner or assembly. On to “Quinol-dependent nitric oxide reductase from Alcaligenes xylosoxidans (His-tagged AxqNOR-BRIL) (enzyme)”, for which the stoichiometry N amounted to 2.
